Assay results taken from patent publication US20220041724A1 (GRAND DECADE DEVELOPMENTS, published 2022).

Tests used:
[1] = molecular target: T1, Recombinant mouse CTLA-4/human IgG1 chimera (R&D Systems) (mouse; human, UniProt P09793 36-162, limits assumed); test: ELISA: mouse CTLA-4/human IgG1 chimera coated at 1 or 5 µg/mL; HEK293 conditioned medium with 9H10-scFv at 168 ng/mL; anti-mouse IgG-HRP, OD 450 nm
T1 construct: Bought reagent; also called recombinant mCTLA-4/Fc; recombinant CTLA4 protein; not shown: human IgG1 portion (Fc) of the bought chimera
Experimental: (§1) Plasmid encoded anti-CTLA4 scFv bound to recombinant CTLA4 protein. Transfection-derived secreted anti-CTLA4 (scFv) were evaluated for their binding capacity to CTLA-4. Recombinant mouse CTLA-4/human IgG1 chimera (R&D Systems) were immobilized in 96-well plates (1 or 5 μg/mL, or […]) for 18 hr at room temperature. Wells were washed three times with 0.1% Tween in PBS and blocked with 1% BSA in PBS. Conditioned medium from HEK293 cells transfected with 9H10-scFv (168 ng/mL) or 9D9-scFv (130 ng/mL) was added to the wells, and incubated for 2 h at room temperature. Wells were washed three times, and anti-mouse IgG-horseradish peroxidase (Jackson ImmunoResearch, 0.2 μg/mL) were added and incubated for 1.5 hours at room temperature. Wells were again washed three times, developed with HRP Substrate Reagent (R&D Systems) and stopped with Stop Solution, 2N sulfuric acid (R&D Systems). Optical density of each well was measured at 450 nm.

[2] = molecular target: T1, Recombinant mouse CTLA-4/human IgG1 …; test: ELISA: mouse CTLA-4/human IgG1 chimera coated at 1 or 5 µg/mL; HEK293 conditioned medium with 9D9-scFv at 130 ng/mL; anti-mouse IgG-HRP, OD 450 nm
Experimental: as §1

binding result [1] | binding result [2] | Binder
binds |  | 9H10-scFv (Igκ-HA-9H10 VLC-Linker-9H10 VHC-Linker-mIgG1 Fc domain, anti-CTLA-4 scFv) (scFv, scFv (VL-linker-VH) with an N-terminal HA tag, fused to a mouse IgG1 Fc domain; It was secreted into conditioned medium of transfected HEK293 cells; also called plasmid encoded anti-CTLA4 scFv) scFv: YPYDVPDYAGAQPARSDIVMTQSPSSLAVSVGEKVTISCKSSQSLLYGSSHYLAWYQQKVGQSPKLLIYWASTRHTGIPDRFIGSGSGTDFTLSLSSVQAEDMADYFCQQYFSTPWTFGAGTRVEIKSGSGGGSGGGSGGGSQVQLLQSESELVKPGASVKLSCKTSGYTFTDYYIHWVKQKPGQGLEWIGLINPNNDGTNYNQKFQGKATLTADKSSSTAYMELNSLTFDDSVIYFCARASSRLRMARTTSDYYAMDYWGQGIQVTVSSVDSSGSGGCKPCICTVPEVSSVFIFPPKPKDVLTITLTPKVTCVVVDISKDDPEVQFSWFVDDVEVHTAQTQPREEQFNSTFRSVSELPIMHQDWLNGKEFKCRVNSAAFPAPIEKTISKTKGRPKAPQVYTIPPPKEQMAKDKVSLTCMITDFFPEDITVEWQWNGQPAENYKNTQPIMDTDGSYFVYSKLNVQKSNWEAGNTFTCSVLHEGLHNHHTEKSLSHSPGK
 | binds | 9D9-scFv (Igκ-HA-9D9 VLC-Linker-9D9 VHC-Linker-mIgG1 Fc domain, anti-CTLA-4 scFv) (scFv, scFv (VL-linker-VH) with an N-terminal HA tag, fused to a mouse IgG1 Fc domain; It was secreted into conditioned medium of transfected HEK293 cells; also called plasmid encoded anti-CTLA4 scFv) scFv: YPYDVPDYAGAQPARSDIVMTQTTLSLPVSLGDQASISCRSSQSIVHSNGNTYLEWYLQKPGQSPKLLIYKVSNRFSGVPDRFSGSGSGTDFTLKISRVEAEDLGVYYCFQGSHVPYTFGGGTKLEIKRADAAPTVSGSGGGSGGGSGGGSEAKLQESGPVLVKPGASVKMSCKASGYTFTDYYMNWVKQSHGKSLEWIGVINPYNGDTSYNQKFKGKATLTVDKSSSTAYMELNSLTSEDSAVYYCARYYGSWFAYWGQGTLITVSTAKTTPPSVYPLAPVDSSGSGGCKPCICTVPEVSSVFIFPPKPKDVLTITLTPKVTCVVVDISKDDPEVQFSWFVDDVEVHTAQTQPREEQFNSTFRSVSELPIMHQDWLNGKEFKCRVNSAAFPAPIEKTISKTKGRPKAPQVYTIPPPKEQMAKDKVSLTCMITDFFPEDITVEWQWNGQPAENYKNTQPIMDTDGSYFVYSKLNVQKSNWEAGNTFTCSVLHEGLHNHHTEKSLSHSPGK
